This is an account of results in patent US5227469A, “Platelet aggregation inhibitors from the leech” (Genentech, Inc., priority 1990, dated 1993).

The target of assay [1] is glycoprotein IIb IIIa (GP IIb IIIa), purified from outdated human platelets (human) (UniProt P08514). As to the kind of experiment: GP IIb IIIa/Fg ELISA, IC50 against the reference GRGDV. A general note: ELISA stands for enzyme-linked immunosorbent assay.
Assay [2] has the same target. As to the kind of experiment: Fg/GP IIb IIIa solid phase ELISA, inhibition of GP IIb IIIa binding to immobilized fibrinogen.
For assay [3], the target named is GP IIb IIIa on human platelets (platelet rich plasma) (human) (UniProt P08514).
In assay [4] the target is glycoprotein IIb IIIa (GP IIb IIIa), purified from outdated human platelets (human) (UniProt P08514). As to the kind of experiment: Fg/GP IIb-IIIa solid phase ELISA.
The target is the same in assay [5]. In words: Fg/GP IIb IIIa ELISA units per mg protein.
Assay [6] has the same target. As to the kind of experiment: Fg/GP IIb IIIa ELISA, dilution of the 0.085 mg/ml fraction giving a half maximal response.

pIC50: −log10 of the molar value.

kistrin, sequence (P30403 408-475 limits assumed): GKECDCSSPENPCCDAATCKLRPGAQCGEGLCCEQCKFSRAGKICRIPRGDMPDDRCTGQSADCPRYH

In assay [1], decorsin came in with a times more potent than GRGDV of 27 fold. In assay [2], this substance gave a pIC50 of 8.82.

Turning to kistrin (from UniProt P30403), the IC50 (nM), human platelet aggregation assay (ADP activation) in assay [3] was 137 nM. In addition, the pIC50 in assay [4] is 8.34.

ornatin E registered a specific activity (U/mg) in assay [5] of 42400 U/mg. In assay [4], this substance had a pIC50 of 8.35. This substance displayed a half maximal dilution in assay [6] of 3610.

The term pIC50 denotes the negative decadic logarithm of the IC50, by convention in mol/L. A lower pIC50 goes with a high IC50.
